From the supplement of paper PMC11136658

Tested on: peptide library, one residue held at a place counted from the Y acceptor
Experiment: relative phosphorylation of the sub-library (ratio to the mean residue at this position); higher = residue favoured
Method in brief: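 Within 384-well plates, purified recombinant kinases phosphorylated biotinylated Tyr-centred peptide library mixtures over 90 min using 50 μM ATP spiked with γ-32P-ATP; each mixture fixed one residue at one position from −5 to +5. Streptavidin membrane capture, rinsing, phosphorimaging and ImageQuant gave the intensities. These were normalized per position to the sum of the 18 randomized residues (16 for the Ser/Thr-free library) and multiplied by that number.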

PINK1, construct: Full length, Tribolium castaneum (from UniProt D6WMX4)
relative phosphorylation
Settings | at +1 | at +2 | at +3 | at +4 | at +5 | at -1 | at -2 | at -3 | at -4 | at -5
A fixed | 0.901 | 0.835 | 0.881 | 0.879 | 0.893 | 0.907 | 0.869 | 0.893 | 0.948 | 0.916
D fixed | 0.823 | 0.834 | 0.831 | 0.914 | 0.84 | 0.931 | 0.892 | 0.906 | 1.05 | 1.09
E fixed | 0.789 | 0.792 | 0.875 | 0.938 | 0.813 | 1.22 | 0.916 | 0.938 | 1.42 | 1.04
F fixed | 1.43 | 1.12 | 1.08 | 1.07 | 1.05 | 1.17 | 1.11 | 0.986 | 1.1 | 0.984
G fixed | 0.902 | 0.767 | 0.78 | 0.909 | 0.88 | 1.15 | 0.931 | 0.838 | 0.884 | 0.936
H fixed | 1.23 | 1.15 | 1.07 | 1.1 | 1.07 | 0.97 | 1.05 | 1.08 | 1.01 | 1.09
I fixed | 0.847 | 0.804 | 0.852 | 0.84 | 0.832 | 1 | 0.922 | 0.781 | 0.868 | 0.888
K fixed | 0.937 | 1.59 | 1.31 | 1.32 | 1.31 | 1 | 1.13 | 1.2 | 1.03 | 1.18
L fixed | 0.737 | 0.831 | 0.881 | 0.882 | 0.876 | 0.814 | 0.889 | 0.862 | 0.793 | 0.82
M fixed | 0.762 | 1.01 | 0.959 | 0.869 | 0.891 | 0.819 | 0.824 | 0.849 | 0.798 | 0.85
N fixed | 0.936 | 1 | 0.91 | 0.954 | 1.02 | 0.948 | 1.21 | 0.981 | 0.871 | 0.893
P fixed | 0.778 | 0.786 | 0.909 | 0.885 | 0.876 | 0.911 | 0.843 | 0.851 | 0.828 | 0.911
Q fixed | 0.862 | 0.989 | 0.973 | 0.99 | 1.02 | 0.998 | 0.996 | 1.09 | 0.934 | 0.887
R fixed | 1.16 | 1.71 | 1.61 | 1.57 | 1.68 | 1.3 | 1.36 | 1.82 | 1.35 | 1.35
V fixed | 0.784 | 0.805 | 0.857 | 0.797 | 0.816 | 0.853 | 0.911 | 0.819 | 0.817 | 0.874
W fixed | 2.12 | 0.972 | 1.23 | 1.09 | 1.15 | 1 | 1.14 | 1.11 | 1.31 | 1.29
pThr fixed | 0.939 | 0.843 | 0.735 | 0.99 | 0.826 | 1.29 | 0.841 | 1.06 | 1.04 | 1.06
pTyr fixed | 1.3 | 0.83 | 0.872 | 1.26 | 0.978 | 1.25 | 0.995 | 1.2 | 1.16 | 1.11
